The results in this text go back to patent publication US20230220111A1 (BEIJING TUO JIE BIOPHARMACEUTICAL, published 2023).

Changes are numbered by the printed parent chain.

The term Kd denotes the concentration at which binding is half-saturated. As a reminder, the koff is the rate constant with which the complex falls apart. Broadly, the kon is the second-order rate constant of association.

B1: antibody 1267 (Kg3g) (antibody, human IgG1, kappa, V domains shown)
VH: QVQLVQSGAEVKKPGASVKVSCKVSGYTLTSILMHWVRQAPGKGLEWMGGFDPQDGETVYAQKFQGRVTMTEDTSTDTAYMELSSLRSEDTAVYYCATDPHRTWWRYFDWLYPRGMDVWGQGTTVTVSS
VL: EIVLTQSPGTLSLSPGERATLSCRASQTVGKNYLAWYQQKPGQAPRLLIYEASVRALGIPDRFSGSGSGTDFTLTISRLEPEDFAVYYCQQFRSYPYTFGQGTKVEIKR
notes: Heavy chain is VH + human CH1 + IgG1 Fc
B2: antibody 3871 (antibody, V domains shown)
VH: QVQLVQSGAEVKKPGSSVKVSCKASGFNIKDDYMHWVRQAPGQGLEWMGWIDPENGDTEYASKFQGRVTITADESTSTAYMELSSLRSEDTAVYYCLYGNFYYFDYWGQGTTVTVSS
VL: EIVLTQSPATLSLSPGERATLSCSASSSINYMHWYQQKPGQAPKRWIYDTSKLASGVPARFSGSGSGTDFTLTISSLEPEDFAVYYCHQRSFSPLTFGQGTKLEIK
notes: Humanized from 3807: VH is 3807-VH1 and VL is 3807-VL3
B3: antibody 3882 (antibody, human IgG4 S228P, kappa, V domains shown)
VH: B2 VH with F27G, N28T, I29F, K30S
VL: EIVLTQSPATLSLSPGERATLSCSASSSINYMHWYQQKPGQAPKRWIYDTSKLASGVPARFSGSGSGTDFTLTISSLEPEDFAVYYCHQRSFSPLTFGQGTKLEIKR
B4: antibody 3875 (antibody, V domains shown)
VH: B2 VH with E74T, T76A, S77N
VL: B2 VL
notes: Humanized from 3807: VH is 3807-VH5 and VL is 3807-VL3
B5: antibody 3807 (antibody, V domains shown)
VH: EVQLQQSGAELVRPGTSVKLSCIASGFNIKDDYMHWVKQRPEQGLEWIGWIDPENGDTEYASKFQGKATITADTSANTAYLQFSSLTSEDTAVYYCLYGNFYYFDYWGQGTTLTVSS
VL: QIVLTQSPAIMSASPGEKVTMTCSASSSINYMHWYQQKPGTSPKRWIYDTSKLASGVPARFSGSGSGTSYSLTISSMEAEDAATYYCHQRSFSPLTFGAGTKLELK
notes: Murine variable regions; also called murine antibody 3807; hybridoma clone 3807
B6: BAY1213790 (antibody, human IgG1, kappa, V domains shown)
VH: EVQLLESGGGLVQPGGSLRLSCAASGFTFSQYGMDWVRQAPGKGLEWVSGIGPSGGSTVYADSVKGRFTISRDNSKNTLYLQMNSLRAEDTAVYYCTRGGPYYYYGMDVWGQGTTVTVSS
VL: DIQMTQSPSSLSASVGDRVTITCQASQDISNYLNWYQQKPGKAPKLLIYDASNLETGVPSRFSGSGSGTDFTFTISSLQPEDIATYYCQQADSFPVTFGGGTKVEIKR
B7: antibody 0012 (antibody, V domains shown)
VH: B1 VH with V5Q, S31E, I32L, L33S, Q54E, V59I
VL: EIVMTQSPGTLSLSPGERATLSCRASQTVGKNYLAWYQQKPGQAPRLLIYGASNRATGIPDRFSGSGSGTDFTLTISRLEPEDFGTYYCQQFRSYPYTFGQGTKVEIK
B8: antibody 1209 (0012-K3) (antibody, human IgG1, kappa, V domains shown)
VH: B1 VH with V5Q
VL: B1 VL with L4M, A85G, V86T

The target of one assay is T1, Human FXIa protein (activated coagulation factor XI) (human, UniProt P03951 19-625).
T1 construct: Bought from Enzyme Research Laboratories (HFXIa 1111a); also called factor XIa; HFXIa 1111a
Put plainly: SPR (Biacore T200), antibody captured on Protein A chip, FXIa as analyte, 1:1 Langmuir fit. An excerpt: (§1) A certain amount of antibodies to be tested was affinity-captured using a Protein A biosensor chip (Cat. #29127556, GE), then FXI/FXIa at a series of concentration gradients flowed through the surface of the chip. The reaction signals were detected in real time using a Biacore instrument (Biacore T200, GE) to obtain association and dissociation curves. After dissociation was completed for each cycle, the biochip was washed and regenerated with a regeneration solution prepared in a human antibody capture kit or a glycine-hydrochloric acid regeneration solution (pH 1.5, Cat. #BR-1003-54, GE). The buffer used in the experiment was HBS-EP+10× buffer (Cat. #BR-1006-69, GE) diluted to 1× (pH 7.4) with double distilled water.
(§2) The data obtained from the experiment were fitted using BIAevaluation version 4.1, GE software using a (1:1) Langmuir model to obtain affinity values. The test results of part of antibodies are shown in FIG. 1A, FIG. 1B and Table 6 below.
A general note: In SPR one partner is held on a chip, and binding of the other changes the refractive index at the surface.
In the case of B1, the Kd was found to be 22.2 pM, the koff came to 1.79e-05 s⁻¹ and the kon was found to be 873000 M⁻¹ s⁻¹.
On the same counts, the results for B2 are 570 pM, 0.000708 s⁻¹ and 1.24e+06 M⁻¹ s⁻¹.
On the same counts, the results for B3 are 364 pM, 0.000387 s⁻¹ and 1.06e+06 M⁻¹ s⁻¹.
On the same counts, the results for B4 are 220 pM, 0.000336 s⁻¹ and 1.53e+06 M⁻¹ s⁻¹.
On to B5, for which the affinity, expressed as Kd, was 148 pM; the koff was determined as 0.000235 s⁻¹; the kon was 1.59e+06 M⁻¹ s⁻¹.

A further assay deals with T2, Human FXI protein (coagulation factor XI) (human, UniProt P03951 19-625). Put plainly: cell-based or functional assay.
Regarding B6, the “aPTT1.5 (concentration prolonging aPTT by 50% relative to PBS), human blood” value came to 2.15 µg/mL.
On the same count and under the same terms, with B7 the figure was 14.6 µg/mL.
Still for that read-out and setting: under B8 stands 4.68 µg/mL; under B2, 0.88 µg/mL; under B3, 0.63 µg/mL.
The same measure, in the same setting: with B4 the figure was 0.87 µg/mL; with B5, 1.33 µg/mL.

The next assay concerns the target monkey FXI (in monkey plasma) (monkey). Put plainly: cell-based or functional assay.
B6: the “aPTT1.5 (concentration prolonging aPTT by 50% relative to PBS), monkey blood” value stood at 2.73 µg/mL.
Same read-out and setting: under B7 stands more than 8.33 µg/mL; under B8, 4.08 µg/mL.
B2: the “aPTT1.5 (concentration prolonging aPTT by 50% relative to PBS), monkey blood” value turned out to be 1.12 µg/mL.
On the same count and under the same terms, under B3 stands 1.14 µg/mL.
On the same count and under the same terms, with B5 the figure was 1 µg/mL.

Another assay deals with T2, Human FXI protein (coagulation factor …). Put plainly: SPR (Biacore T200), antibody captured on Protein A chip, FXI as analyte, 1:1 Langmuir fit.
Description: as §1, §2
Molecule B2 yielded a Kd of 20 pM, a koff of 2.66e-05 s⁻¹ and a kon of 1.32e+06 M⁻¹ s⁻¹.
The molecule B3 gave a Kd of 29.6 pM, a koff of 5.85e-05 s⁻¹ and a kon of 1.97e+06 M⁻¹ s⁻¹.
On to B4, for which binding was put at a Kd of 37.8 pM, the koff was determined as 3.02e-05 s⁻¹ and the kon worked out at 799000 M⁻¹ s⁻¹.
